Values quoted from earlier work, collected in patent US11535641B2, “Method for preparing GOS having reduced allergenicity” (FRIESLANDCAMPINA NEDERLAND B.V., priority 2017, dated 2022).
Like-named read-outs stand apart in the source and are kept apart here.

Columns and labels:
[1] = acetate buffer (pH 6.0)
[2] = GOS yield about 50% (65° C., 24 hours)
[3] = for Ratio in GOS (%) DP2*: lactose not included; for Amount of GOS (content of GOS in total sugar): 24 hours, 53% lactose, 1 U per g lactose
[4] = comparison of enzymes, GOS yield about 50%
[5] = comparison of enzymes, typical results when GOS yield about 50% (65° C., 24 hours)

B1: WT strain enzyme: β-galactosidase from Cryptococcus terrestris strain MM13-F2171, SEQ ID NO: 1 (protein, listed as Cryptococcus terrestris)
chain: MIPASALLAAVPLLAQQVSAGILRRQNAAGSDSAAPDSIADASTGVVSSIATEAVSSGATGLVASVAMSFASSMATPTATVTGLSSETGAPSNTPMASASGSVPTTTSAVGSGDFDWVQTDGLPTITTTLATTNQDAITPTATGPVGGQGTPAVNFTDYSSSSLEQFWNDWVGEVEEPPFAYVPEPPNPYPLPNAPPPIYPEYYTKRPKDILPDYKFPKDFLFGWATAAQQWEGAVKADGKGPSIWDWASRFPGFIADNTTSDVGDLGYYLYKEDLARIAALGANVYSFSMFWTRIFPFGKADSPVNQAGIDFYHDLIDYSWSLGIEPVVTLFHWDTPLALQLEYGGFASERIIDDYVNYAETVFKAYNGSVHKWVTFNEPVVFCSQMAAPVNTTLPPNLNSTIYPYTCSYHLVLAHAKTVKRFRELNIQGQIAFKSDNFVGIPWREGNQEDIDAVERHQAYQIGIFAEPIYNTGDWPDIVKNDLSPDILPRFTDDEIAMIKCTADFFPIDGYRDGYVQAVPGGVEACVANISNPLWPACNQVNFYDSTPAGWAIGTFGNWPTTPWLQNTWQFVRPFLADLAKRYPTEGGIYLSEFGFSEPFENDKTFIYQITQDSGRTAYFNSYLGEVLKGIVEDGIPIKGVFGWSMVDNFEWNSGLSTRFGVQYVDYNSPTRQRTFKRSALEMSEFWNAHRCSA
optimum temperature [1]: 70 °C
enzyme activity retained ([1]; within the stable temperature range, 30 minutes): ≥ 80%
Ratio in DP3 (%) β1-2, β1-3 [2]: 22.1%
Ratio in DP3 (%) β1-4 [2]: 76.3%
Ratio in DP3 (%) β1-6 [2]: 1.5%
Ratio in GOS (%) DP2* [3, 4]: 25.8%
Ratio in GOS (%) DP3 [3, 5]: 57.5%
Ratio in GOS (%) ≥ DP4 [3, 5]: 16.7%
Ratio in GOS (%) DP3 ([3]; reaction temperature 65° C.): 51.8%
Ratio in GOS (%) ≥ DP4 ([3]; reaction temperature 65° C.): 22.1%
Amount of GOS (content of GOS in total sugar) ([3]; reaction temperature 65° C.): 53.4%
Ratio in GOS (%) DP2* ([3]; reaction temperature 65° C.): 26.1%
Ratio in GOS (%) DP3 ([3]; reaction temperature 70° C.): 47.4%
Ratio in GOS (%) ≥ DP4 ([3]; reaction temperature 70° C.): 25.8%
Amount of GOS (content of GOS in total sugar) ([3]; reaction temperature 70° C.): 54.2%
Ratio in GOS (%) DP2* ([3]; reaction temperature 70° C.): 26.8%

B2: C. terrestris M2 (mutant strain enzyme 1): β-galactosidase with N-terminal 130 residues of wild-type deleted, SEQ ID NO: 2 (protein, listed as Cryptococcus terrestris)
chain: ATTNQDAITPTATGPVGGQGTPAVNFTDYSSSSLEQFWNDWVGEVEEPPFAYVPEPPNPYPLPNAPPPIYPEYYTKRPKDILPDYKFPKDFLFGWATAAQQWEGAVKADGKGPSIWDWASRFPGFIADNTTSDVGDLGYYLYKEDLARIAALGANVYSFSMFWTRIFPFGKADSPVNQAGIDFYHDLIDYSWSLGIEPVVTLFHWDTPLALQLEYGGFASERIIDDYVNYAETVFKAYNGSVHKWVTFNEPVVFCSQMAAPVNTTLPPNLNSTIYPYTCSYHLVLAHAKTVKRFRELNIQGQIAFKSDNFVGIPWREGNQEDIDAVERHQAYQIGIFAEPIYNTGDWPDIVKNDLSPDILPRFTDDEIAMIKCTADFFPIDGYRDGYVQAVPGGVEACVANISNPLWPACNQVNFYDSTPAGWAIGTFGNWPTTPWLQNTWQFVRPFLADLAKRYPTEGGIYLSEFGFSEPFENDKTFIYQITQDSGRTAYFNSYLGEVLKGIVEDGIPIKGVFGWSMVDNFEWNSGLSTRFGVQYVDYNSPTRQRTFKRSALEMSEFWNAHRCSA
optimum temperature [1]: 70 °C
Ratio in DP3 (%) β1-2, β1-3 [2]: 20.7%
Ratio in DP3 (%) β1-4 [2]: 79.0%
Ratio in DP3 (%) β1-6 [2]: 0.4%
Ratio in GOS (%) DP2* [3, 4]: 25.3%
Ratio in GOS (%) DP3 [3, 5]: 60.5%
Ratio in GOS (%) ≥ DP4 [3, 5]: 14.2%

B3: C. terrestris M6 (mutant strain enzyme 3): β-galactosidase with N-terminal 141 residues of wild-type deleted, SEQ ID NO: 4 (protein, listed as Cryptococcus terrestris)
chain: ATGPVGGQGTPAVNFTDYSSSSLEQFWNDWVGEVEEPPFAYVPEPPNPYPLPNAPPPIYPEYYTKRPKDILPDYKFPKDFLFGWATAAQQWEGAVKADGKGPSIWDWASRFPGFIADNTTSDVGDLGYYLYKEDLARIAALGANVYSFSMFWTRIFPFGKADSPVNQAGIDFYHDLIDYSWSLGIEPVVTLFHWDTPLALQLEYGGFASERIIDDYVNYAETVFKAYNGSVHKWVTFNEPVVFCSQMAAPVNTTLPPNLNSTIYPYTCSYHLVLAHAKTVKRFRELNIQGQIAFKSDNFVGIPWREGNQEDIDAVERHQAYQIGIFAEPIYNTGDWPDIVKNDLSPDILPRFTDDEIAMIKCTADFFPIDGYRDGYVQAVPGGVEACVANISNPLWPACNQVNFYDSTPAGWAIGTFGNWPTTPWLQNTWQFVRPFLADLAKRYPTEGGIYLSEFGFSEPFENDKTFIYQITQDSGRTAYFNSYLGEVLKGIVEDGIPIKGVFGWSMVDNFEWNSGLSTRFGVQYVDYNSPTRQRTFKRSALEMSEFWNAHRCSA
optimum temperature [1]: 70 °C
Ratio in DP3 (%) β1-2, β1-3 [2]: 22.1%
Ratio in DP3 (%) β1-4 [2]: 75.2%
Ratio in DP3 (%) β1-6 [2]: 2.7%
Ratio in GOS (%) DP2* [3, 4]: 25.8%
Ratio in GOS (%) DP3 [3, 5]: 54.2%
Ratio in GOS (%) ≥ DP4 [3, 5]: 19.9%
Ratio in GOS (%) DP3 ([3]; reaction temperature 50° C.): 68.9%
Ratio in GOS (%) ≥ DP4 ([3]; reaction temperature 50° C.): 6.4%
Amount of GOS (content of GOS in total sugar) ([3]; reaction temperature 50° C.): 46.9%
Ratio in GOS (%) DP2* ([3]; reaction temperature 50° C.): 24.7%
Ratio in GOS (%) DP3 ([3]; reaction temperature 60° C.): 58.2%
Ratio in GOS (%) ≥ DP4 ([3]; reaction temperature 60° C.): 16.1%
Amount of GOS (content of GOS in total sugar) ([3]; reaction temperature 60° C.): 52.1%
Ratio in GOS (%) DP2* ([3]; reaction temperature 60° C.): 25.8%
Ratio in GOS (%) DP3 ([3]; reaction temperature 65° C.): 53.4%
Ratio in GOS (%) ≥ DP4 ([3]; reaction temperature 65° C.): 20.9%
Amount of GOS (content of GOS in total sugar) ([3]; reaction temperature 65° C.): 53.2%
Ratio in GOS (%) DP2* ([3]; reaction temperature 65° C.): 26.0%
Ratio in GOS (%) DP3 ([3]; reaction temperature 70° C.): 49.2%
Ratio in GOS (%) ≥ DP4 ([3]; reaction temperature 70° C.): 24.5%
Amount of GOS (content of GOS in total sugar) ([3]; reaction temperature 70° C.): 53.9%
Ratio in GOS (%) DP2* ([3]; reaction temperature 70° C.): 26.3%
